The assay has as its target pyruvate kinase M2 (PKM2), endogenous (human (endogenous in A375 and G361)) (UniProt P14618). The assay can be described thus: native gel or EMSA; BN-PAGE of cell lysates with β-actin as loading control; A375 with TIPE interference, G361 with TIPE overexpression; dimer and tetramer bands of PKM2.

Sequence of pyruvate kinase M2 (PKM2), endogenous, P14618 1-531 (enzyme; other documents disagree on this pair) (P14618 whole entry): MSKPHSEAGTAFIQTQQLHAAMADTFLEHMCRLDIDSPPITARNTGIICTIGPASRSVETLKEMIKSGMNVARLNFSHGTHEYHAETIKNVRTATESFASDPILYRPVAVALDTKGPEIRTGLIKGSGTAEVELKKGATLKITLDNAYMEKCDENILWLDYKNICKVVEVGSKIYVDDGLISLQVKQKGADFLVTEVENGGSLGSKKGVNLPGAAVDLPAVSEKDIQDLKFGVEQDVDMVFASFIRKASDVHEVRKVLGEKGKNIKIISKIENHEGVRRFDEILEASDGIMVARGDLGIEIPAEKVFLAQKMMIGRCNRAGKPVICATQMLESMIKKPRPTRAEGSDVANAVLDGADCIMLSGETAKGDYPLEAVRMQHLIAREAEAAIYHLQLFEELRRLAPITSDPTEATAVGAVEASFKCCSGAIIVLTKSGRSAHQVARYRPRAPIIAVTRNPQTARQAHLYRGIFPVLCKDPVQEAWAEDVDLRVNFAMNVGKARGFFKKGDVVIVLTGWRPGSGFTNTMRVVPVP

“pyruvate kinase M2 (PKM2), endogenous, P14618 1-531 (enzyme; other documents disagree on this pair)” registered a stoichiometry N of 2.

One may read the stoichiometry N as the number of molecules, sites or subunits per partner or assembly.

The values are drawn from PMC11677236.
